Consider one substance from paper PMC3511649.

Assay [1] has as its target OG488-EGR labeled wild-type factor IXa (human) (UniProt P00740). Description: fluorescence polarisation. A general note: In fluorescence polarisation assays a small probe gives low polarisation when free and higher when bound to something large.
Assay [2] addresses OG488-EGR labeled Gla-domainless factor IXa (GD-FIXa) (human) (UniProt P00740). As to the kind of experiment: fluorescence polarisation.

UniProt P00740, sequence (P00740 47-191, chain 1 of 2): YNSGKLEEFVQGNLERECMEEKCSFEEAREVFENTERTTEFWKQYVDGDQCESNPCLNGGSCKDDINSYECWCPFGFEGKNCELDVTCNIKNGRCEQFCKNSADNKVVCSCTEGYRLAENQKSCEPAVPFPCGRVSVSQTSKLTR
UniProt P00740, sequence (P00740 227-461, chain 2 of 2): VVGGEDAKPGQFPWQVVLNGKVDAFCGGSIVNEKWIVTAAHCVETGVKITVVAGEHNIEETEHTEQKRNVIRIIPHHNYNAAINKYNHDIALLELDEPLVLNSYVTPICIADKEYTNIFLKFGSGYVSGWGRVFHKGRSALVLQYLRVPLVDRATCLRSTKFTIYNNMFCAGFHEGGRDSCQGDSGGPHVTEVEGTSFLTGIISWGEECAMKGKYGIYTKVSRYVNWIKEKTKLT

Turning to “human recombinant factor VIIIa (complex)”, the Kd in assay [1] was 0.0015 µM; in assay [2], 0.31 µM.

As a reminder, the Kd is the concentration at which binding is half-saturated. Low values mean higher affinity, high ones lower affinity.
